Non-standard residues stand in square brackets, D forms with d. Residues, ends and D or L forms follow the SMILES beside them. *: point of attachment. DOTA = O=C(O)CN1CCN(CC(=O)O)CCN(CC(=O)*)CCN(CC(=O)O)CC1; Nle = CCCC[C@H](N)C(=O)O; For = O=C*

On the set-up of this data set: species or system Swiss albino mice. To be noted: mouse, in vivo, 5 min. On the procedure:
Whole blood was collected 5 min postinjection (pi), blood cells were removed and major proteins were precipitated and then the supernatant was analyzed by RP-HPLC coupled to a gamma detector.
Alternatively, the dual NEP and ACE inhibitor racecadotril (race; 2.5 mg) was ip injected 45-60 min prior to radioligand injection and the same procedure was followed as described above.
To test the in vivo stability, ^111In-DOTA-MG11 was injected in the tail vein of Swiss albino mice and 5 min afterwards blood was collected, blood cells were removed and major proteins were precipitated and then the supernatant was analyzed by RP-HPLC coupled to a gamma detector. As shown in the radiochromatogram of FIG. 3A, the major part of ^111In-DOTA-MG11 was consumed during this period (<5% intact peptide still detected), in agreement with previous reports. Further, ^111In-DOTA-MG11 was co-injected together with PA or injected 1 h after ip injection of race (2.5 mg) in more mice and the same protocol was followed as above. Amazingly, the percentage of ^111In-DOTA-MG11 found intact in the blood of the PA-treated mice was raised from <5% to 75% and in the race-pretreated mice to 73%.
For ex vivo blood analysis, [^99mTc]Demotensin 6 was injected in the tail vein of Swiss albino mice and blood collected 5 min thereafter was analyzed as previously described. The effect of PA on stability was studied by co-injection of PA along with [^99mTc]Demotensin 6. Furthermore, a PA dose study was performed with the PA injected dose ranging from 300 μg down to 0.03 μg and results are summarized in FIG. 4A.
Additional groups of radiopeptides with relevance for nuclear medicine applications have been studied for their in vivo stability. Radiopeptides were injected in the tail vein of healthy mice, either alone, or with a NEP inhibitor (PA—300 μg), or with a NEP (PA—300 μg) and an ACE (Lis—300 μg) inhibitor mixture; alternatively, another NEP inhibitor prodrug (race—2.5 mg) was ip injected in the animals ˜45 min prior to radioligand injection. Blood was collected 5 min afterwards, and analyzed by RP-HPLC after suitable preparation, as previously described.
Consider `CCCC[C@H](NC(=O)[C@H](CO)NC(=O)[C@H](Cc1ccc(O)cc1)NC(=O)[C@H](CO)NC(=O)CN1CCN(CC(=O)O)CCN(CC(=O)O)CCN(CC(=O)O)CC1)C(=O)N[C@@H](CCC(=O)O)C(=O)N[C@@H](Cc1c[nH]cn1)C(=O)N[C@@H](Cc1ccccc1)C(=O)N[C@@H](CCCNC(=N)N)C(=O)N[C@@H](Cc1c[nH]c2ccccc12)C(=O)NCC(=O)N[C@@H](CCCCN)C(=O)N1CCC[C@H]1C(=O)N[C@H](C(N)=O)C(C)C` [[111In]MSH-1, metal not drawn], for which the “percentage of parent peptide remaining intact” value worked out at 52%. Consider `CCCC[C@H](NC=O)C(=O)N[C@@H](CC(C)C)C(=O)N[C@@H](Cc1ccccc1)C(=O)N[C@@H](CCCC)C(=O)N[C@@H](Cc1ccc(O)cc1)C(=O)N[C@@H](CCCCNC(=O)CN1CCN(CC(=O)O)CCN(CC(=O)O)CCN(CC(=O)O)CC1)C(=O)O` [[111In] CTP-1, For-Nle-Leu-Phe-Nle-Tyr-Lys(DOTA)-OH, metal not drawn] (For-[Nle]LF[Nle]YK(DOTA)-OH), for which the “percentage of parent peptide remaining intact” value stood at 2%. As for `CC(C)C[C@H](NC(=O)CNC(=O)[C@H](Cc1ccccc1)NC(=O)[C@H](Cc1ccccc1)NC(=O)[C@H](CCC(N)=O)NC(=O)[C@H](CCC(N)=O)NC(=O)[C@@H]1CCCN1C(=O)[C@H](CCCCN)NC(=O)[C@@H]1CCCN1C(=O)[C@H](CCCNC(=N)N)NC(=O)CN1CCN(CC(=O)O)CCN(CC(=O)O)CCN(CC(=O)O)CC1)C(=O)N[C@@H](CCS(C)(=O)=O)C(N)=O` [[111In]SP-2, metal not drawn], the “percentage of parent peptide remaining intact” value stood at 24%.

As for `CSCC[C@H](NC(=O)[C@H](CC(C)C)NC(=O)CNC(=O)[C@H](Cc1ccccc1)NC(=O)[C@H](Cc1ccccc1)NC(=O)[C@H](CCC(N)=O)NC(=O)[C@H](CCC(N)=O)NC(=O)[C@@H]1CCCN1C(=O)[C@H](CCCCN)NC(=O)[C@@H]1CCCN1C(=O)[C@H](CCCNC(=N)N)NC(=O)CN1CCN(CC(=O)O)CCN(CC(=O)O)CCN(CC(=O)O)CC1)C(N)=O` [[111In]SP-1, metal not drawn], the “percentage of parent peptide remaining intact” value is given as 7%. As to `CCCC[C@H](NC(=O)[C@H](CO)NC(=O)[C@H](Cc1ccc(O)cc1)NC(=O)[C@H](CO)NC(=O)CN1CCN(CC(=O)O)CCN(CC(=O)O)CCN(CC(=O)O)CC1)C(=O)N[C@@H](CCC(=O)O)C(=O)N[C@@H](Cc1cnc[nH]1)C(=O)N[C@H](Cc1ccccc1)C(=O)N[C@@H](CCCN=C(N)N)C(=O)N[C@@H](Cc1c[nH]c2ccccc12)C(=O)NCC(=O)N[C@@H](CCCCN)C(=O)N1CCC[C@H]1C(=O)N[C@H](C(N)=O)C(C)C` [[111In]MSH-2, (DOTA)Ser-Tyr-Ser-Nle-Glu-His-DPhe-Arg-Trp-Gly-Lys-Pro-Val-NH2, metal not drawn], the “percentage of parent peptide remaining intact” value was 77%.

`CC(C)C[C@H](NC(=O)CN(C)C(=O)[C@H](Cc1ccccc1)NC(=O)[C@H](Cc1ccccc1)NC(=O)[C@H](CCC(N)=O)NC(=O)[C@H](CCC(N)=O)NC(=O)[C@@H]1CCCN1C(=O)[C@H](CCCCN)NC(=O)[C@@H]1CCCN1C(=O)[C@H](CCCNC(=N)N)NC(=O)CN1CCN(CC(=O)O)CCN(CC(=O)O)CCN(CC(=O)O)CC1)C(=O)N[C@@H](CCS(C)(=O)=O)C(N)=O` [[111In]SP-3, metal not drawn]: the “percentage of parent peptide remaining intact” value turned out to be 51%.
